Laboratory results as given in patent US20190231872A1 (INDUSTRY ACADEMIC COOPERATION FOUNDATION HALLYM UNIVERSITY, published 2019).
Read-outs that look alike come from different tables or passages of the source.

T1: hTM4SF5EC2-C cyclic peptide (human, cyclic: disulfide bond between the cysteines that replace glycine 133 and valine 156 (3rd and 26th residue of the peptide); biotinylated for SPR)
T1 construct: Chemically synthesized (Peptron); also called cyclic TM4SF5 peptide; TM4SF5 cyclic peptide
T1 peptide: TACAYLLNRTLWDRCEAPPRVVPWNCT

T2: hTM4SF5R2-3 peptide (human)
T2 peptide: NRTLWDRCEAPPRV

T3: Myc-tagged recombinant human TM4SF5 protein (human, UniProt O14894 1-197)
T3 construct: whole, on cells; tested in cell lysates by Western blot and immunoprecipitation, not on whole cells; also called hTM4SF5; recombinant TM4SF5 protein; not shown: C-terminal Myc-His tag of the vector pcDNA-3.1/Myc-His(-)B
T3 sequence (looked up): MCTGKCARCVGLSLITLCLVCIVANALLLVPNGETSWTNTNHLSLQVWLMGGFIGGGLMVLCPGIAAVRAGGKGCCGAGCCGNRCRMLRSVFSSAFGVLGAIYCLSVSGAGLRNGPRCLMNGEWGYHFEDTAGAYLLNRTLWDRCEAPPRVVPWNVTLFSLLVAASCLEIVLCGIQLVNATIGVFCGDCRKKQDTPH


Columns and labels:
[1] = molecular target: T1, hTM4SF5EC2-C cyclic peptide; assay: SPR, Kd of hEC2-C-2 against Kd of mEC2-C
Method: (§1) The affinities of anti-hTM4SF5 monoclonal antibody (mEC2-C) and humanized anti-TM4SF5 antibody (hEC2-C-2) binding to hTM4SF5EC2-C cyclic peptide were measured at 25° C. using the Reichert SPR system. Biotinylated peptides were captured from each flowing cell surface of a streptoavidin-coated sensor chip. Biotin was used as a negative control. Anti-hTM4SF5 monoclonal antibody (mEC2-C) and humanized anti-TM4SF5 antibody were injected at a flow rate of 30 ml/min. Data were evaluated using Reichert SPR evaluation software.

[2] = molecular target: T1, hTM4SF5EC2-C cyclic peptide; assay: ELISA on coated hTM4SF5EC2-C, purified antibody titrated
[3] = molecular target: T1, hTM4SF5EC2-C cyclic peptide; assay: SPR (Reichert SPR 7500DC), cyclic peptide hTM4SF5EC2-C on chip, antibody 0 to 3.75 nM, 1:1 binding with mass transfer
Method: as §1

[4] = molecular target: T2, hTM4SF5R2-3 peptide; assay: ELISA on coated hTM4SF5R2-3, purified antibody titrated
[5] = molecular target: T1, hTM4SF5EC2-C cyclic peptide; assay: SPR (Reichert SPR 7500DC), biotinylated peptide on streptavidin chip, antibody injected, 25 C
Method: as §1

[6] = molecular target: T1, hTM4SF5EC2-C cyclic peptide; assay: SPR (Reichert SPR 7500DC), biotinylated cyclic peptide on streptavidin chip, antibody 0 to 80 nM, 1:1 binding with mass transfer
Method: FIG. 6 represents purification and characterization of mouse anti-TM4SF5 monoclonal antibodies recognizing TM4SF5 cyclic peptides. (A) Hydrops abdominis was producted from BALB/c mice by injecting i.p. into the abdominal cavity with hybridoma clone (2A10 clone) derived from FIG. 5. Anti-TM4SF5 monoclonal antibody was purified using protein-A agarose column chromatography and the purified antibody was identified by SDS-PAGE and Coomassie blue staining. (B) The isotype was determined by obtaining titration curves using purified monoclonal antibodies. (C) A binding affinity of monoclonal antibody for cyclic peptide hTM4SF5EC2-C was determined by using ELISA. (D) A binding affinity of monoclonal antibody for cyclic peptide […] was determined by using Reichert Analytical Instruments SPR 7500DC (Reichert). Biotinylated peptides were immobilized on streptavidin chip and the amount of antibody was increased. Kinetic parameters of binding reactions are expressed under sensorgrams.
as §1, with “Anti-hTM4SF5 monoclonal antibody (mEC2-C) and humanized anti-TM4SF5 antibody were injected at a flow rate of 30 ml/min.” left out

[7] = molecular target: T1, hTM4SF5EC2-C cyclic peptide; assay: ELISA on coated hTM4SF5EC2-C, purified antibody titrated
[8] = molecular target: T3, Myc-tagged recombinant human TM4SF5 …; assay: Western blot of HEK 293F-EV and HEK 293F-TM4SF5 lysates with hybridoma culture supernatant
[9] = molecular target: T2, hTM4SF5R2-3 peptide; assay: ELISA on coated hTM4SF5R2-3, purified antibody titrated

fold lower Kd than the original mouse monoclonal antibody mEC2-C [1] [fold]	EC50 (read off the curve) [2] [nM]	Kd [3] [nM]	koff [3] [s⁻¹]	kon [3] [M⁻¹ s⁻¹]	binding result [4]	Kd [5] [nM]	Kd [6] [nM]	kon [6] [M⁻¹ s⁻¹]	EC50 (read off the curve) [7] [nM]	binding result [8]	binding result [9]	koff [5] [s⁻¹]	Binder
~20	~0.1	0.0227	1e-05	440000	no binding (tested: 1e-6 M)	~0.0227							humanized anti-TM4SF5 antibody hEC2-C-2 (antibody, V domains shown, hEC2-C-2 is the clone that was expressed and tested; also called hEC2-C-2 Ab; hEC2-C-2 IgG) VH: EVQLVESGGGLVQPGGSLRLSCAASGFSLTSYGVTWVRQAPGKGLEWLGVIWSDGSTNYQSALISRLTISRDNSKNTAYLQMNSLRAEDTAVYYCARPSNYYYFDYWGQGTLVTVSS VL: DIQMTQSPSSLSASVGDRVTITCKSSQSLFDRRTRKTYLAWYQQKPGKAPKLLISWASTRESGVPSRFSGSGSGTDFTLTISSLQPEDFATYYCKQSYNLFTFGQGTKVEIK
						≤ 0.48	0.488	20500	~3	binds	no binding (tested: 1e-6 M)	≤ 1e-05	anti-TM4SF5 monoclonal antibody mEC2-C (antibody, V domains shown, also called mouse anti-TM4SF5 monoclonal antibody; anti-hTM4SF5 monoclonal antibody) VH: QVQLEESGPGLVAPSQSLSIICTVSGFSLTSYGVTWVRQPPGKGLEWLGVIWSDGSTNYQSALISRLTISRDNSKSQAFLKLNSLQTDDTATYYCARPSNYYYFDYWGQGTTLTVSS VL: DIVMTQSPSSLAVSAGERVTLSCKSSQSLFDRRTRKTYLAWYQQKPGQSPKLLISWASTRESGVPDRFTGSGSGTDFTLTISSVQAEDLAVYYCKQSYNLFTFGGGTKLEIK
